Source: patent US11685786 (MERUS N V, dated 2023)

B1: MF6798 x MF6798 bivalent monospecific CD137 IgG (antibody, V domains shown)
VH: QVQLVQSGSELKKPGASVKVSCRASGYTFTNFAMTWVRQAPGQGPEYMGWINTNTGNPTYAQGFTGRFVFSLDTSVNTAYLQISSLKAEDTAVYYCARDWASVMVRGDLDYWGQGTLVTVSS
VL: not shown
notes: bivalent IgG; copies: 2 + 2
B2: MF6744 x MF6744 bivalent monospecific CD137 IgG (antibody, V domains shown)
VH: EVQLVQSGAEVKKPGESLKISCKGSGYSFTSYWIGWVRQMPGKGLEWMGIIFPDDSDTRYSPSFQGQVTISADKSISTAYLQWSSLKPSDTAMYYCVRLGGYSGYAEDFVDFWGQGTLVTVSS
VL: not shown
notes: bivalent IgG; also called PG6744; PB14135; copies: 2 + 2
B3: MF6825 x MF6825 bivalent monospecific CD137 IgG (antibody, V domains shown)
VH: QITLKESGPTLVKPTQTLTLSCTFSGFSLSTSGMSVGWIRQPPGKALEWLALIYWNDDKYFSPSLKSRLTITKDTSKNQVVLTLTNMDPVDTATYYCAHTLWGSDDVFDVWGQGTMVTVSS
VL: not shown
notes: bivalent IgG; also called PB14162; copies: 2 + 2
B4: MF6783 x MF6783 bivalent monospecific CD137 IgG (antibody, V domains shown)
VH: QVQLVQSGSELKKPGASVKVSCKASGYTFTNFAMNWVRRAPGQGLEWMGWINTNTGNPTYAQGFTGRFVFSLDTSVNTAYLQISSLKAEDTAVYYCARDWGVIGGHYMDVWGKGTTVTVSS
VL: not shown
notes: bivalent IgG; also called PG6783; PB14143; copies: 2 + 2
B5: MF6861 x MF6861 bivalent monospecific CD137 IgG (antibody, V domains shown)
VH: QVQLVQSGAEVKKPGASVKVSCKASGYTFTSYGISWVRQAPGQGLEWMGWISAYNGNTNYAQKLQGRVTMTTDTSTSTAYMELRSLRSDDTAVYYCARDSDGYGPKAFDYWGQGTLVTVSS
VL: not shown
notes: bivalent IgG; copies: 2 + 2
B6: MF6795 x MF6795 bivalent monospecific CD137 IgG (antibody, V domains shown)
VH: EVQLVQSGAEVKKPGESLKISCKGSGYSFTSYWIGWVRQMPGKGLEWMGIIYPDDSDTRYSPSFQGQVTISADKSSSTAYLQWSSLKASDTAMYYCASFYTGIVGATGAFDVWGQGTTVTVSS
VL: not shown
notes: bivalent IgG; copies: 2 + 2
B7: MF6788 x MF6788 bivalent monospecific CD137 IgG (antibody, V domains shown)
VH: EVQLVQSGSELKKPGASVKVSCKASGYTFTNFAMNWVRQAPGQGLEWMGWINTNTGNPTYAQDFTGRFVFSLDTSGNTAYLQISSLKAEDTAVYYCARDWGLVAIGYFDYWGQGTLVTVSS
VL: not shown
notes: bivalent IgG; also called PB14193; copies: 2 + 2

How the values were obtained:
[1] = target: T1, recombinant huCD137-Fc (R&D; cat. no. 838-4B) (human, UniProt Q07011 24-186); assay: CD137L blocking assay; competitor CD137L; format not told in the excerpt
T1 construct: Bought; not shown: Fc of bought fusion protein, not described

[2] = target: T1, recombinant huCD137-Fc (R&D; cat. no. …); assay: competition ELISA: CD137L-muCD8 biotin on coated CD137-Fc, IgG 20 ug/ml

Row | Binder | % CD137L block [1] [%] | % CD137L block [2] [%]
1 | B1 | 44 | 44
2 | B2 | 67 | 67
3 | B3 | 89 | 89
4 | B4 | 44 | 44
5 | B5 | 50 | 50
6 | B6 | 32 | 32
7 | B7 | 55 | 55
